± gives the standard deviation of the averaged measurements.
Key:
MCF7 = assay: percentage of EdU-negative (G0-arrested) nuclei per well, 72 h; higher = more G0 arrest; details: reference: sequence is the full UniProt precursor, the tested protein was the secreted form or ectodomain
hTERT-HMEC = assay: as above; details: reference: sequence is the full UniProt precursor, the tested protein was the secreted form or ectodomain
[1] = protein concentration 0.0114286 µM
[2] = protein concentration 0.114286 µM
[3] = protein concentration 0.0357143 µM
[4] = protein concentration 0.357143 µM
[5] = protein concentration 0.0225 µM
[6] = protein concentration 0.01975 µM
[7] = protein concentration 0.1975 µM
[8] = protein concentration 0.02625 µM
[9] = protein concentration 0.2625 µM
[10] = protein concentration 0.0257143 µM
[11] = protein concentration 0.257143 µM
[12] = protein concentration 0.01025 µM
[13] = protein concentration 0.1025 µM
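Note: secreted proteins added to cultured cells, EdU pulse at the end, nuclei found by Hoechst imaging, EdU status from nuclear versus surrounding ring intensity ratio, PBS as neutral control.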

Substance: H7BXV5
- percentage of EdU-negative (MCF7; [1]): 23 ± 0.76%
- percentage of EdU-negative (MCF7; [2]): 23.83 ± 0.21%
- percentage of EdU-negative (hTERT-HMEC; [1]): 4.71 ± 0.48%
- percentage of EdU-negative (hTERT-HMEC; [2]): 7.28 ± 0.91%

Substance: MAAAAATKILLCLPLLLLLSGWSRAGRADPHSLCYDITVIPKFRPGPRWCAVQGQVDEKTFLHYDCGNKTVTPVSPLGKKLNVTTAWKAQNPVLREVVDILTEQLRDIQLENYTPKEPLTLQARMSCEQKAEGHSSGSWQFSFDGQIFLLFDSEKRMWTTVHPGARKMKEKWENDKVVAMSFHYFSMGDCIGWLEDFLMGMDSTLEPSAGAPLAMSSGTTQLRATATTLILCCLLIILPCFILPGI [Q9BZM5]
- percentage of EdU-negative (MCF7; [3]): 22.2 ± 0.6%
- percentage of EdU-negative (MCF7; [4]): 25.5 ± 0.78%
- percentage of EdU-negative (hTERT-HMEC; [3]): 4.46 ± 0.35%
- percentage of EdU-negative (hTERT-HMEC; [4]): 5.89 ± 0.34%

Substance: MAAAAMAAAAGGGAGAARSLSRFRGCLAGALLGDCVGSFYEAHDTVDLTSVLRHVQSLEPDPGTPGSERTEALYYTDDTAMARALVQSLLAKEAFDEVDMAHRFAQEYKKDPDRGYGAGVVTVFKKLLNPKCRDVFEPARAQFNGKGSYGNGGAMRVAGISLAYSSVQDVQKFARLSAQLTHASSLGYNGAILQALAVHLALQGESSSEHFLKQLLGHMEDLEGDAQSVLDARELGMEERPYSSRLKKIGELLDQASVTREEVVSELGNGIAAFESVPTAIYCFLRCMEPDPEIPSAFNSLQRTLIYSISLGGDTDTIATMAGAIAGAYYGMDQVPESWQQSCEGYEETDILAQSLHRVFQKS [Q9NX46]
- percentage of EdU-negative (MCF7; [5]): 24.5 ± 2.2%
- percentage of EdU-negative (MCF7; protein concentration 0.225 µM): 29.1 ± 3.5%
- percentage of EdU-negative (hTERT-HMEC; [5]): 4.73 ± 1.1%
- percentage of EdU-negative (hTERT-HMEC; protein concentration 0.225 µM): 7.08 ± 0.11%

Substance: MAAAASPAFLLCLPLLHLLSGWSRAGWVDTHCLCYDFIITPKSRPEPQWCEVQGLVDERPFLHYDCVNHKAKAFASLGKKVNVTKTWEEQTETLRDVVDFLKGQLLDIQVENLIPIEPLTLQARMSCEHEAHGHGRGSWQFLFNGQKFLLFDSNNRKWTALHPGAKKMTEKWEKNRDVTMFFQKISLGDCKMWLEEFLMYWEQMLDPTKPPSLAPGTTQPKAMATTLSPWSLLIIFLCFILAGR [Q9BZM6]
- percentage of EdU-negative (MCF7; [6]): 24.2 ± 1.6%
- percentage of EdU-negative (MCF7; [7]): 25.4 ± 1.1%
- percentage of EdU-negative (hTERT-HMEC; [6]): 4.75 ± 0.89%
- percentage of EdU-negative (hTERT-HMEC; [7]): 6.21 ± 1.1%

Substance: MAAAASPAILPRLAILPYLLFDWSGTGRADAHSLWYNFTIIHLPRHGQQWCEVQSQVDQKNFLSYDCGSDKVLSMGHLEEQLYATDAWGKQLEMLREVGQRLRLELADTELEDFTPSGPLTLQVRMSCECEADGYIRGSWQFSFDGRKFLLFDSNNRKWTVVHAGARRMKEKWEKDSGLTTFFKMVSMRDCKSWLRDFLMHRKKRLEPTAPPTMAPGLAQPKAIATTLSPWSFLIILCFILPGI [Q9BZM4]
- percentage of EdU-negative (MCF7; [8]): 25.38 ± 0.21%
- percentage of EdU-negative (MCF7; [9]): 27.9 ± 1.3%
- percentage of EdU-negative (hTERT-HMEC; [8]): 5.34 ± 0.19%
- percentage of EdU-negative (hTERT-HMEC; [9]): 4.8 ± 0.37%

Substance: MAAALFVLLGFALLGTHGASGAAGFVQAPLSQQRWVGGSVELHCEAVGSPVPEIQWWFEGQGPNDTCSQLWDGARLDRVHIHATYHQHAASTISIDTLVEEDTGTYECRASNDPDRNHLTRAPRVKWVRAQAVVLVLEPGTVFTTVEDLGSKILLTCSLNDSATEVTGHRWLKGGVVLKEDALPGQKTEFKVDSDDQWGEYSCVFLPEPMGTANIQLHGPPRVKAVKSSEHINEGETAMLVCKSESVPPVTDWAWYKITDSEDKALMNGSESRFFVSSSQGRSELHIENLNMEADPGQYRCNGTSSKGSDQAIITLRVRSHLAALWPFLGIVAEVLVLVTIIFIYEKRRKPEDVLDDDDAGSAPLKSSGQHQNDKGKNVRQRNSS
- percentage of EdU-negative (MCF7; [5]): 22.7 ± 2.4%
- percentage of EdU-negative (MCF7; protein concentration 0.225 µM): 25.2 ± 1.3%
- percentage of EdU-negative (hTERT-HMEC; [5]): 5.59 ± 0.91%
- percentage of EdU-negative (hTERT-HMEC; protein concentration 0.225 µM): 5.94 ± 1.8%

Substance: MAAARLCLSLLLLSTCVALLLQPLLGAQGAPLEPVYPGDNATPEQMAQYAADLRRYINMLTRPRYGKRHKEDTLAFSEWGSPHAAVPRELSPLDL
- percentage of EdU-negative (MCF7; [10]): 20.5 ± 1.5%
- percentage of EdU-negative (MCF7; [11]): 23.4 ± 3.6%
- percentage of EdU-negative (hTERT-HMEC; [10]): 5.37 ± 1.1%
- percentage of EdU-negative (hTERT-HMEC; [11]): 5.93 ± 0.18%

Substance: MAAATGPSFWLGNETLKVPLALFALNRQRLCERLRKNPAVQAGSIVVLQGGEETQRYCTDTGVLFRQESFFHWAFGVTEPGCYGVIDVDTGKSTLFVPRLPASHATWMGKIHSKEHFKEKYAVDDVQYVDEIASVLTSQKPSVLLTLRGVNTDSGSVCREASFDGISKFEVNNTILHPEIVECRVFKTDMELEVLRYTNKISSEAHREVMKAVKVGMKEYELESLFEHYCYSRGGMRHSSYTCICGSGENSAVLHYGHAGAPNDRTIQNGDMCLFDMGGEYYCFASDITCSFPANGKFTADQKAVYEAVLRSSRAVMGAMKPGVWWPDMHRLADRIHLEELAHMGILSGSVDAMVQAHLGAVFMPHGLGHFLGIDVHDVGGYPEGVERIDEPGLRSLRTARHLQPGMVLTVEPGIYFIDHLLDEALADPARASFLNREVLQRFRGFGGVRIEEDVVVTDSGIELLTCVPRTVEEIEACMAGCDKAFTPFSGPK
- percentage of EdU-negative (MCF7; [12]): 26 ± 1%
- percentage of EdU-negative (MCF7; [13]): 27.3 ± 1.4%
- percentage of EdU-negative (hTERT-HMEC; [12]): 5.01 ± 0.5%
- percentage of EdU-negative (hTERT-HMEC; [13]): 4.28 ± 0.51%
